According to the supplement of paper PMC10567573:

B1: PDLIM4 (parent)
chain: FLDERLYCESHAKARVKPPEGYDV
B2: TCAP (parent)
chain: YQRVLPLPIFTPAKMGATKEERED

Variants of: B1
Experiment: protein stability index of a GFP-peptide fusion (GPS, HEK-293T) (PSI 1-6); higher = more stable
Details: c terminus: a fixed tail appended
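Note: lentivirally expressed fusions sorted by FACS into six bins by GFP to DsRed ratio, PSI derived from sequencing read proportions per bin multiplied by bin number.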

Protein stability index of substitutions, site by site:
P18: F 2.16, Y 2.46, A 2.82, D 1.36, N 1.54, G 1.75, V 1.96, S 2.52, I 1.01, R 2.41, T 1.71, H 1.69, E 1.75, Q 2.38, M 1.1
K17: M 2.53, V 2.62, P 2.25, S 1.48, R 1.87, Q 1.86, N 1.87, Y 1.66
D23: C 1.65, A 1.48, K 2.53, F 1.73, Q 2.23, N 2.3, T 2.03, P 2.3, G 1.14, W 1.81, I 1.81, H 3.11, S 2.85, Y 2.45
P19: G 2.01, T 2.29, I 1.86, W 2.75, H 1.72, S 1.11, D 2.15, R 2.65, N 1.21, M 1.77, K 2.31, L 2.26, Y 1.43, F 1.93, C 2.26, E 1.05
E20: Q 3.09, V 3, S 1.4, H 2.82, G 2.67, D 1.74, L 1.1, P 3.31, A 2.53, M 2.03, N 2.28, Y 2.28, T 2.26, R 2.7, I 2.65
G21: K 1.63, Y 2.09, L 1.77, W 1.49, H 1.59, V 2.34, S 1.69, A 1.83, F 1.72, N 2.4, D 2.94, I 2.25, P 1.8, M 2.4, T 2.14, Q 2.4, C 1.89, E 2.62
V24: Q 1.11, E 1.6, H 1.63, R 1.99, D 1.33, L 1.03, A 2.09, C 1.71, I 2.47, G 1.51, S 2.82, W 1.91, M 2.12, Y 1.6, T 1.53, P 2.53, N 2.32
Y22: F 1.43, R 2.71, E 2.43, C 2.75, D 1.53, M 1.37, A 1.32, P 3.32, W 1.28, N 2.65, I 3, L 1.15, K 2.46, S 1.04, G 2.68, T 2.29, Q 2.55

Variants of: B2
Experiment: as above
Details: c terminus: a fixed tail appended

Protein stability index, by site and new letter:
Y1: H 4.68, N 5.03, V 4.33, C 4.53, M 4.64, T 4.79, P 5.44, G 4.97, R 4.53, E 5.33, L 4.21, I 3.9, S 5.4, A 5.43, Q 5.25, D 5.35, F 2.09, K 5.06, W 2.93
Q2: A 1.92, D 3.35, E 3.53, F 3.21, R 3.9, L 2.58, K 4.35, S 1.87, N 2.35, I 2.08, H 2.07, C 1.99, W 2.59, P 1.55, T 1.89, V 1.99, Y 2.93, G 1.41, M 2.54
R3: H 1.88, C 3.12, I 1.73, F 2.63, K 2.5, D 2.03, E 2.03, G 3, A 2.15
